# Measured values: article PMC6821171, “LYAR potentiates rRNA synthesis by recruiting BRD2/4 and the MYST-type acetyltransferase KAT7 to rDNA” (Nucleic Acids Research, 2019)
# Biological target: T1, peptide LYAR_(175-219) (human, UniProt Q9NX58 175-219)
# T1 construct: LYAR, human, residues 175-219
# Test: ITC; peptide BRD2 489-540 with peptide LYAR 175-219 (Supplementary Figure S5E)
# Conditions: both partners purified
binder,measurement,value
"peptide BRD2_(489-540) (peptide, UniProt P25440 489-540, looked up, Bromodomain-containing protein 2, human, residues 489-540) peptide: SSSEEEEEEDEEDEEEEESESSDSEEERAHRLAELQEQLRAVHEQLAALSQG",stoichiometry N,1
